Target: T1, Aspergillus ochraceus 11 alpha hydroxylase
T1 chain: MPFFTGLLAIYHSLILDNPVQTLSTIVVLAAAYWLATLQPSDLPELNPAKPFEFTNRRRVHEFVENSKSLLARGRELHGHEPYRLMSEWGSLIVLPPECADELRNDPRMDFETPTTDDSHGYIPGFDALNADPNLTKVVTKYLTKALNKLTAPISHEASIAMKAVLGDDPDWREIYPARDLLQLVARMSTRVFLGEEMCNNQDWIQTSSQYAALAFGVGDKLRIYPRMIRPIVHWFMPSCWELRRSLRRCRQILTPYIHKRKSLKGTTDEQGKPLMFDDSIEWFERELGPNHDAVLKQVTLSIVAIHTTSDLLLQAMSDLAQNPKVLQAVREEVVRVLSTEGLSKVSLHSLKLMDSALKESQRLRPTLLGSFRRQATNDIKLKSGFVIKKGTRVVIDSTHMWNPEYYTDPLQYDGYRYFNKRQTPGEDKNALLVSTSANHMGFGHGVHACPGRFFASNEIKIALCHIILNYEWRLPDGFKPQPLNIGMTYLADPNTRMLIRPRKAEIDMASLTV

B1: human oxidoreductase (protein)
chain: MGDSHVDTSSTVSEAVAEEVSLFSMTDMILFSLIVGLLTYWFLFRKKKEEVPEFTKIQTLTSSVRESSFVEKMKKTGRNIIVFYGSQTGTAEEFANRLSKDAHRYGMRGMSADPEEYDLADLSSLPEIDNALVVFCMATYGEGDPTDNAQDFYDWLQETDVDLSGVKFAVFGLGNKTYEHFNAMGKYVDKRLEQLGAQRIFELGLGDDDGNLEEDFITWREQFWPAVCEHFGVEATGEESSIRQYELVVHTDIDAAKVYMGEMGRLKSYENQKPPFDAKNPFLAAVTTNRKLNQGTERHLMHLELDISDSKIRYESGDHVAVYPANDSALVNQLGKILGADLDVVMSLNNLDEESNKKHPFPCPTSYRTALTYYLDITNPPRTNVLYELAQYASEPSEQELLRKMASSSGEGKELYLSWVVEARRHILAILQDCPSLRPPIDHLCELLPRLQARYYSIASSSKVHPNSVHICAVVVEYETKAGRINKGVATNWLRAKEPAGENGGRALVPMFVRKSQFRLPFKATTPVIMVGPGTGVAPFIGFIQERAWLRQQGKEVGETLLYYGCRRSDEDYLYREELAQFHRDGALTQLNVAFSREQSHKVYVQHLLKQDREHLWKLIEGGAHIYVCGDARNMARDVQNTFYDIVAELGAMEHAQAVDYIKKLMTKGRYSLDVWS
conversion of 4-androstene-3,17-dione (AD) to 11 alpha-hydroxy-AD, by HPLC: successfully catalyzed the conversion of the steroid substrate 4-androstene-3,17-dione (AD) to 11 alpha-hydroxy-AD

From US20030148420
